Article PMC2756588

T1: Lsb3, P43603
T1 sequence (P43603 385-451, looked up): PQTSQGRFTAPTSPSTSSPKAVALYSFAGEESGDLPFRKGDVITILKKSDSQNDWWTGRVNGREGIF

T2: Nbp2, Q12163
T2 sequence (Q12163 103-180, looked up): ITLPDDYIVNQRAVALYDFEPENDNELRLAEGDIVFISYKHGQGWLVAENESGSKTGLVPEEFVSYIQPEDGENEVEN

T3: Lsb4, P32793
T3 sequence (P32793 402-468, looked up): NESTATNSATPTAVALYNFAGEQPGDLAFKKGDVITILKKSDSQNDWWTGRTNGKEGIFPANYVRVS

T4: Cyk3, Q07533
T4 sequence (Q07533 1-83, looked up): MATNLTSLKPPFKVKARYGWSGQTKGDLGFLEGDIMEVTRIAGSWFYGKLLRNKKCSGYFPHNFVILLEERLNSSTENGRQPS

T5: Boi1, P38041
T5 sequence (P38041 1-86, looked up): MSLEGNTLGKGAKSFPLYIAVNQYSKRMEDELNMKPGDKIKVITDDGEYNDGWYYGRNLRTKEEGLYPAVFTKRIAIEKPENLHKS

T6: Myo5, Q04439
T6 sequence (Q04439 1072-1160, looked up): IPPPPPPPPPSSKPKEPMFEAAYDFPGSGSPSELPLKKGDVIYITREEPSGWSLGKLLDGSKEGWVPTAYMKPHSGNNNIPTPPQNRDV

T7: Pex13, P80667
T7 sequence (P80667 295-386, looked up): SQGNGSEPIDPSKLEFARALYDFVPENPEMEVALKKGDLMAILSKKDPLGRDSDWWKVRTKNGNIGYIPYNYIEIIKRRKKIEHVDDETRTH

T8: Bbc1, P47068
T8 sequence (P47068 1-78, looked up): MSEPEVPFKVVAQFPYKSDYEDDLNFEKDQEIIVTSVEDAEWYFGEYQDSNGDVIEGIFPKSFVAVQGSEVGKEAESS

T9: Hof1, Q05080
T9 sequence (Q05080 590-669, looked up): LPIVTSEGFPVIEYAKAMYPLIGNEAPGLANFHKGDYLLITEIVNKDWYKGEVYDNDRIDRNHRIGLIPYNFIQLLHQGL

T10: Bzz1-2, P38822
T10 sequence (P38822 568-633, looked up): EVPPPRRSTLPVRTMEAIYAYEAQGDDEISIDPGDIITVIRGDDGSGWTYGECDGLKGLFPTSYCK

T11: Sla1-2, P32790
T11 sequence (P32790 60-140, looked up): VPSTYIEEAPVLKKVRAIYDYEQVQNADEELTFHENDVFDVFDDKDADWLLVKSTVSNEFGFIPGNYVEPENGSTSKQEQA

T12: Bzz1-1, P38822
T12 sequence (P38822 478-572, looked up): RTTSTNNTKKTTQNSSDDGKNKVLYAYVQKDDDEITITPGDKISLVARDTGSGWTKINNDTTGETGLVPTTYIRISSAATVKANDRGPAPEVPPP

T13: Lsb1, P53281
T13 sequence (P53281 45-122, looked up): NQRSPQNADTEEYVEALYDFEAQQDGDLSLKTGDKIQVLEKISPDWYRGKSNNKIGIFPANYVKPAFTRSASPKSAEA

T14: Fus1, P11710
T14 sequence (P11710 432-512, looked up): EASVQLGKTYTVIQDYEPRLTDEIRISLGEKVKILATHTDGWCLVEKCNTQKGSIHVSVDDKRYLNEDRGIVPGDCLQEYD

T15: Sla1-3, P32790
T15 sequence (P32790 344-424, looked up): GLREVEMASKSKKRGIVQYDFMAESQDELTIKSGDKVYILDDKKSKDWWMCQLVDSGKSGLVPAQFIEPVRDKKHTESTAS

T16: Cdc25, P04821
T16 sequence (P04821 50-136, looked up): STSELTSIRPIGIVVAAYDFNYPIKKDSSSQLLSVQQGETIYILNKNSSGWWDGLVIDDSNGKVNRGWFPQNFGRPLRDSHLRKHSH

T17: Abp1, P15891
T17 sequence (P15891 535-592, looked up): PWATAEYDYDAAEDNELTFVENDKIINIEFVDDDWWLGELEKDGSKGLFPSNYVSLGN

T18: Pin3, Q06449
T18 sequence (Q06449 53-122, looked up): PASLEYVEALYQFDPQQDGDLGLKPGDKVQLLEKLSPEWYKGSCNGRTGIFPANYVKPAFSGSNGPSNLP

T19: Hse1, P38753
T19 sequence (P38753 208-285, looked up): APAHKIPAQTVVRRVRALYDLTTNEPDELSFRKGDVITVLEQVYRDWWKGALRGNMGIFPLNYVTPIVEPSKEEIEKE

T20: Boi2, P39969
T20 sequence (P39969 32-116, looked up): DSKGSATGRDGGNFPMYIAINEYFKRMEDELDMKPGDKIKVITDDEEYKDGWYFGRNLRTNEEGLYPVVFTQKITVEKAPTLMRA

T21: Bud14, P27637
T21 sequence (P27637 247-328, looked up): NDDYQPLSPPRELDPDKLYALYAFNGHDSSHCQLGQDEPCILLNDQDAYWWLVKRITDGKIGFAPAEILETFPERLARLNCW


Columns and labels:
Assay in all cases: SPOT array
[1] = target: Rvs167, P39743; conditions: median of control spots 2707
Chain of Rvs167, P39743 (P39743 419-482): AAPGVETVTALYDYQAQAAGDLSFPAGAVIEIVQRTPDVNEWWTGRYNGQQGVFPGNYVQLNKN

[2] = target: T1, Lsb3, P43603; conditions: median of control spots 406
[3] = target: T2, Nbp2, Q12163; conditions: median of control spots 357
[4] = target: T3, Lsb4, P32793; conditions: median of control spots 397
[5] = target: T4, Cyk3, Q07533; conditions: median of control spots 1451
[6] = target: T5, Boi1, P38041; conditions: median of control spots 1162
[7] = target: Bem1-2, P29366; conditions: median of control spots 4347
Chain of Bem1-2, P29366 (P29366 139-227): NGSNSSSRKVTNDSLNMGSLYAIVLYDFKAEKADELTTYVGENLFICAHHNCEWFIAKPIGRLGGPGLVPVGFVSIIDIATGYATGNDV

[8] = target: T6, Myo5, Q04439; conditions: median of control spots 471
[9] = target: T7, Pex13, P80667; conditions: median of control spots 1341
[10] = target: T8, Bbc1, P47068; conditions: median of control spots 796
[11] = target: T9, Hof1, Q05080; conditions: median of control spots 4086
[12] = target: Myo3, P36006; conditions: median of control spots 468
[13] = target: T10, Bzz1-2, P38822; conditions: median of control spots 4538
[14] = target: Sho1, P40073; conditions: median of control spots 1148
Chain of Sho1, P40073 (P40073 287-367): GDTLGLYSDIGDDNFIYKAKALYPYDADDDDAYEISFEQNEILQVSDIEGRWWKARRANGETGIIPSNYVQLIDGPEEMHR

[15] = target: T11, Sla1-2, P32790; conditions: median of control spots 712
[16] = target: T12, Bzz1-1, P38822; conditions: median of control spots 4446
[17] = target: T13, Lsb1, P53281; conditions: median of control spots 388
[18] = target: T14, Fus1, P11710; conditions: median of control spots 1200
[19] = target: T15, Sla1-3, P32790; conditions: median of control spots 5475
[20] = target: T16, Cdc25, P04821; conditions: median of control spots 969
[21] = target: T17, Abp1, P15891; conditions: median of control spots 935
[22] = target: T18, Pin3, Q06449; conditions: median of control spots 2171
[23] = target: T19, Hse1, P38753; conditions: median of control spots 1727
[24] = target: T20, Boi2, P39969; conditions: median of control spots 1161
[25] = target: T21, Bud14, P27637; conditions: median of control spots 956
[26] = target: Bem1-1, P29366; conditions: median of control spots 4282
Chain of Bem1-1, P29366 (P29366 55-141): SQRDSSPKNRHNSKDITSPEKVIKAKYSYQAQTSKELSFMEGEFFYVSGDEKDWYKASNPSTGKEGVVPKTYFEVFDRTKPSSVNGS

[27] = target: GST; conditions: median of control spots 978

| Binder | SPOT intensity [1] | SPOT intensity [2] | SPOT intensity [3] | SPOT intensity [4] | SPOT intensity [5] | SPOT intensity [6] | SPOT intensity [7] | SPOT intensity [8] | SPOT intensity [9] | SPOT intensity [10] | SPOT intensity [11] | SPOT intensity [12] | SPOT intensity [13] | SPOT intensity [14] | SPOT intensity [15] | SPOT intensity [16] | SPOT intensity [17] | SPOT intensity [18] | SPOT intensity [19] | SPOT intensity [20] | further results |
| --- | --- | --- | --- | --- | --- | --- | --- | --- | --- | --- | --- | --- | --- | --- | --- | --- | --- | --- | --- | --- | --- |
| PELAPKREAPKPPAN | 0 | 0 | 281 | 2 | 1 | 1 | 1 | 262 | 0 | 7 | 0 | 497 | 4 | 0 | 0 | 4 | 0 | 0 | 0 | 0 | SPOT intensity [21]: 0; SPOT intensity [22]: 0; SPOT intensity [23]: 0; SPOT intensity [24]: 1; SPOT intensity [25]: 0; SPOT intensity [26]: 0; SPOT intensity [27]: 0 |
| APKREAPKPPANTSP | 0 | 0 | 139 | 1 | 0 | 0 | 0 | 126 | 7 | 56 | 0 | 277 | 0 | 0 | 0 | 10 | 0 | 0 | 12 | 3 | SPOT intensity [21]: 9; SPOT intensity [22]: 2; SPOT intensity [23]: 0; SPOT intensity [24]: 0; SPOT intensity [25]: 0; SPOT intensity [26]: 0; SPOT intensity [27]: 0 |
| QLLNPNRRAPRRPLS | 0 | 43 | 1130 | 35 | 1 | 5 | 169 | 13 | 21 | 158 | 3 | 168 | 9 | 50 | 3 | 0 | 56 | 1 | 9 | 16 | SPOT intensity [21]: 125; SPOT intensity [22]: 30; SPOT intensity [23]: 20; SPOT intensity [24]: 2; SPOT intensity [25]: 11; SPOT intensity [26]: 0; SPOT intensity [27]: 2 |
| RLSRLLLSLPPESFT | 0 | 0 | 42 | 3 | 2 | 7 | 11 | 0 | 19 | 47 | 89 | 10 | 4 | 66 | 0 | 0 | 6 | 81 | 45 | 172 | SPOT intensity [21]: 57; SPOT intensity [22]: 27; SPOT intensity [23]: 59; SPOT intensity [24]: 2; SPOT intensity [25]: 50; SPOT intensity [26]: 0; SPOT intensity [27]: 0 |
